Results taken from paper PMC6736097 (Nucleic Acids Research, 2019).

B1: ILP1 split-YFP fusion for BiFC (ILP1-nYFP and ILP1-cYFP) (natural protein)
chain: MGSNRPKNFRRRGDDGGDEIDGKVATPSSKPTSTLSSSKPKTLSASAPKKKLLSFADDEEEEEDGAPRVTIKPKNGRDRVKSSSRLGVSGSSHRHSSTKERRPASSNVLPQAGSYSKEALLELQKNTRTLPYSRSSANAEPKVVLKGLIKPPQDHEQQSLKDVVKQVSDLDFDEEGEEEQHEDAFADQAAIIRAKKERMRQSRSAPAPDYISLDGGIVNHSAVEGVSDEDADFQGIFVGPRPQKDDKKGVFDFGDENPTAKETTTSSIYEDEDEEDKLWEEEQFKKGIGKRMDEGSHRTVTSNGIGVPLHSKQQTLPQQQPQMYAYHAGTPMPNVSVAPTIGPATSVDTLPMSQQAELAKKALKDNVKKLKESHAKTLSSLTKTDENLTASLMSITALESSLSAAGDKYVFMQKLRDFISVICDFMQNKGSLIEEIEDQMKELNEKHALSILERRIADNNDEMIELGAAVKAAMTVLNKHGSSSSVIAAATGAALAASTSIRQQMNQPVKLDEFGRDENLQKRREVEQRAAARQKRRARFENKRASAMEVDGPSLKIEGESSTDESDTETSAYKETRDSLLQCADKVFSDASEEYSQLSKVKARFERWKRDYSSTYRDAYMSLTVPSIFSPYVRLELLKWDPLHQDVDFFDMKWHGLLFDYGKPEDGDDFAPDDTDANLVPELVEKVAIPILHHQIVRCWDILSTRETRNAVAATSLVTNYVSASSEALAELFAAIRARLVEAIAAISVPTWDPLVLKAVPNTPQVAAYRFGTSVRLMRNICMWKDILALPVLENLALSDLLFGKVLPHVRSIASNIHDAVTRTERIVASLSGVWTGPSVTRTHSRPLQPLVDCTLTLRRILEKRLGSGLDDAETTGLARRLKRILVELHEHDHAREIVRTFNLKEAV

Legend:
[1] = target: PRP43b-cYFP (Arabidopsis thaliana, UniProt O22899 1-729); experiment: split reporter
Sequence of PRP43b-cYFP (O22899 whole entry): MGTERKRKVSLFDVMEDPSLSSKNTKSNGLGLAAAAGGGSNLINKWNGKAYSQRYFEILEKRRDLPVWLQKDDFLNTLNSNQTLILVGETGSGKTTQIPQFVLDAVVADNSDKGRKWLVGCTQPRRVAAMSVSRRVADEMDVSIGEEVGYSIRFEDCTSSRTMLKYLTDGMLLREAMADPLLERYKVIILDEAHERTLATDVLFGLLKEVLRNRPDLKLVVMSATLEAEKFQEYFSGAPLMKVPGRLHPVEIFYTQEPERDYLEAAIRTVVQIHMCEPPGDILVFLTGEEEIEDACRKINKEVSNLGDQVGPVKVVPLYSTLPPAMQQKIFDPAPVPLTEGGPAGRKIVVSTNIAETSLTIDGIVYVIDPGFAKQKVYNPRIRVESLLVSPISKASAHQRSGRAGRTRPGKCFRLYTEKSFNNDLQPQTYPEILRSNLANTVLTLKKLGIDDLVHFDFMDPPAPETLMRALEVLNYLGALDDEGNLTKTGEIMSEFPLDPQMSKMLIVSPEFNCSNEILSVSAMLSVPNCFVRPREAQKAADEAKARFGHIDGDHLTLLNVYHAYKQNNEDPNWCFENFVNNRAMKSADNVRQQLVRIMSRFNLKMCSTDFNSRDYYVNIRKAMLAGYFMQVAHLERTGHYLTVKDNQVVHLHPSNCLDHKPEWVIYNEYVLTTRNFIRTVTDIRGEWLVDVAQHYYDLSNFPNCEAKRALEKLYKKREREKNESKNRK

[2] = target: B1; experiment: split reporter

Row | Binder | positive BiFC ratio (percent of protoplasts) [1] [%] | positive BiFC ratio (percent of protoplasts) [2] [%]
1 | NTR1 split-YFP fusion for BiFC (NTR1-nYFP) (natural protein) not shown | 14.7 | 41.4
2 | B1 | 1.4 | –
